The target of assay [1] is T1, αvβ3 integrin (human, UniProt P06756 31-1048; P05106 27-788).
T1 construct: Native detergent-extracted heterodimer, adsorbed to microtiter wells; also called integrin αvβ3; purified human αvβ3
The experiment in a line: competition ELISA, displacement of biotinylated vitronectin (10 nM) from immobilized αvβ3 (FIG. 4A). As for the experimental part:
(§1) Briefly, proteins were dialyzed into 0.1 M NaHCO₃, 0.1 M NaCl. N-hydroxysuccinimido-LC-biotin (Pierce) was dissolved at 1 mg/mL in DMSO and added to the protein at a ratio of 0.1 mg biotin per 1 mg protein. The reaction was allowed to rotate at room temperature for 2 hours. Biotinylated proteins were dialyzed into phosphate-buffered saline and their concentrations determined by absorbance at 280 nm. […] Absorbance was read at 405 nm.
On the technique in general: An ELISA detects its analyte on a solid surface through an enzyme-linked reagent.

Assay [2] has as its target T1, αvβ3 integrin. The experiment in a line: competition ELISA, displacement of biotinylated fibrinogen (6 nM) from immobilized αvβ3 (FIG. 4B). As for the experimental part: as §1
The target of assay [3] is T2, αIIbβ3 (UniProt P08514 32-1039; P05106 27-788).
T2 construct: Bought purified protein, adsorbed to microtiter wells; also called integrin αIIbβ3; GPIIbIIIa
The experiment in a line: competition ELISA, displacement of biotinylated fibrinogen (6 nM) from immobilized αIIbβ3 (FIG. 4C). On the procedure: An estimate of the maximum absorbance value was determined for each ligand/integrin pair in the absence of competitor. The baseline absorbance value was determined by adding 5 mM EDTA to the incubation buffer.
as §1

A word on the IC50: it is the point on the concentration scale where inhibition reaches its midpoint.

T1 sequence (P06756 31-1048, form in doubt, chain 1 of 2): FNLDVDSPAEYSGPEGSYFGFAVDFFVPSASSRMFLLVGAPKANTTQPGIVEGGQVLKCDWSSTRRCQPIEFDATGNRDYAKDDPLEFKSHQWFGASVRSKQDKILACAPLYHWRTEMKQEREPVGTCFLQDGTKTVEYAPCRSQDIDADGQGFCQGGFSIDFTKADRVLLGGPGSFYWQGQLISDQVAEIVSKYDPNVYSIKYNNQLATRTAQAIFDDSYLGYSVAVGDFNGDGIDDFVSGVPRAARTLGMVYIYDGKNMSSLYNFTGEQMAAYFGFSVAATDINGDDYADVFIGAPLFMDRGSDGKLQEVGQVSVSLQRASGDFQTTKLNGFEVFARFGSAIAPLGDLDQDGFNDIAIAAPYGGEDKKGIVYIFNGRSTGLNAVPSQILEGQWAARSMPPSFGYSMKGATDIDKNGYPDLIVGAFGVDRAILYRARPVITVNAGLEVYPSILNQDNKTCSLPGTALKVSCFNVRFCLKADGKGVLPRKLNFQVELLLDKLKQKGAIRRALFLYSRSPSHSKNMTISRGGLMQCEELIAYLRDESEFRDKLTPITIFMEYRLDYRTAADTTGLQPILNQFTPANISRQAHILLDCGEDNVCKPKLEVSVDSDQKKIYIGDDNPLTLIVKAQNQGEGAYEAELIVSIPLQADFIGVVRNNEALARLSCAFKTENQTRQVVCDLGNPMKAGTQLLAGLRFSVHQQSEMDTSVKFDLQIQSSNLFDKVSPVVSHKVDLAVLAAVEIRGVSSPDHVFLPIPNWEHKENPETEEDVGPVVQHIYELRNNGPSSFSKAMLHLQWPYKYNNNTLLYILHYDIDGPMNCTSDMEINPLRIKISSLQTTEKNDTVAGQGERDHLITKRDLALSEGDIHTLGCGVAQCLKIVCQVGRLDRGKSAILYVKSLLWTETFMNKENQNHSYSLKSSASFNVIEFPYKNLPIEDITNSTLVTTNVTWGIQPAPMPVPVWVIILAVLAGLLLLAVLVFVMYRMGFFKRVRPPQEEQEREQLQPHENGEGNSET
T1 sequence (P05106 27-788, form in doubt, chain 2 of 2): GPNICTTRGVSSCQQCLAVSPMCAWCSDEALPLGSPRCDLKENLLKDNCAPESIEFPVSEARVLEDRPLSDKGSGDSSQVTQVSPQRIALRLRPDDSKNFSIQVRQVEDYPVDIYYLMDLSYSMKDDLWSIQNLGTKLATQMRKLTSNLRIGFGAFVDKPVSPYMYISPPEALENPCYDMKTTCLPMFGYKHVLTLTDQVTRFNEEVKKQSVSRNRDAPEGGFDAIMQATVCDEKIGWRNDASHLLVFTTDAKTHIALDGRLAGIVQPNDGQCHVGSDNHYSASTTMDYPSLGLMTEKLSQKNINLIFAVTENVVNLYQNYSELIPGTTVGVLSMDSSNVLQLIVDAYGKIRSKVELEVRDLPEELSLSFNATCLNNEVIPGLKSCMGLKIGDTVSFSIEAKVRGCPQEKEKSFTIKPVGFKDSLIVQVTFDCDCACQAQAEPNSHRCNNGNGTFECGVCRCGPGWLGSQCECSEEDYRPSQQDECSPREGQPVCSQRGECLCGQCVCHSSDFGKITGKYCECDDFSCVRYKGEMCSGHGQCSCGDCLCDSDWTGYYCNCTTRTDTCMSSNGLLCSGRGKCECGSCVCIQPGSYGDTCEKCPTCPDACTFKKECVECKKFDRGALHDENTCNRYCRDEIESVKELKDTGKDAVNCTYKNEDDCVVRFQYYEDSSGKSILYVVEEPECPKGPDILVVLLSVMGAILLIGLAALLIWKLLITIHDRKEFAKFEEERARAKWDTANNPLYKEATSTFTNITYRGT

B1: Vitronectin (ligand, human, UniProt P04004 20-478, looked up)
chain: DQESCKGRCTEGFNVDKKCQCDELCSYYQSCCTDYTAECKPQVTRGDVFTMPEDEYTVYDDGEEKNNATVHEQVGGPSLTSDLQAQSKGNPEQTPVLKPEEEAPAPEVGASKPEGIDSRPETLHPGRPQPPAEEELCSGKPFDAFTDLKNGSLFAFRGQYCYELDEKAVRPGYPKLIRDVWGIEGPIDAAFTRINCQGKTYLFKGSQYWRFEDGVLDPDYPRNISDGFDGIPDNVDAALALPAHSYSGRERVYFFKGKQYWEYQFQHQPSQEECEGSSLSAVFEHFAMMQRDSWEDIFELLFWGRTSAGTRQPQFISRDWHGVPGQVDAAMAGRIYISGMAPRPSLAKKQRFRHRNRKGYRSQRGHSRGRNQNSRRPSRATWLSLFSSEESNLGANNYDDYRMDWLVPATCEPIQSVFFFSGDKYYRVNLRTRRVDTVDPPYPRSIAQYWLGCPAPGHL
notes: also called biotinylated vitronectin; unmodified vitronectin
The molecule B1 had an IC50 in assay [1] of 59 nM.

B2: Fibrinogen (ligand)
chain 1: ADSGEGDFLAEGGGVRGPRVVERHQSACKDSDWPFCSDEDWNYKCPSGCRMKGLIDEVNQDFTNRINKLKNSLFEYQKNNKDSHSLTTNIMEILRGDFSSANNRDNTYNRVSEDLRSRIEVLKRKVIEKVQHIQLLQKNVRAQLVDMKRLEVDIDIKIRSCRGSCSRALAREVDLKDYEDQQKQLEQVIAKDLLPSRDRQHLPLIKMKPVPDLVPGNFKSQLQKVPPEWKALTDMPQMRMELERPGGNEITRGGSTSYGTGSETESPRNPSSAGSWNSGSSGPGSTGNRNPGSSGTGGTATWKPGSSGPGSTGSWNSGSSGTGSTGNQNPGSPRPGSTGTWNPGSSERGSAGHWTSESSVSGSTGQWHSESGSFRPDSPGSGNARPNNPDWGTFEEVSGNVSPGTRREYHTEKLVTSKGDKELRTGKEKVTSGSTTTTRRSCSKTVTKTVIGPDGHKEVTKEVVTSEDGSDCPEAMDLGTLSGIGTLDGFRHRHPDEAAFFDTASTGKTFPGFFSPMLGEFVSETESRGSESGIFTNTKESSSHHPGIAEFPSRGKSSSYSKQFTSSTSYNRGDSTFESKSYKMADEAGSEADHEGTHSTKRGHAKSRPV
chain 2: QGVNDNEEGFFSARGHRPLDKKREEAPSLRPAPPPISGGGYRARPAKAAATQKKVERKAPDAGGCLHADPDLGVLCPTGCQLQEALLQQERPIRNSVDELNNNVEAVSQTSSSSFQYMYLLKDLWQKRQKQVKDNENVVNEYSSELEKHQLYIDETVNSNIPTNLRVLRSILENLRSKIQKLESDVSAQMEYCRTPCTVSCNIPVVSGKECEEIIRKGGETSEMYLIQPDSSVKPYRVYCDMNTENGGWTVIQNRQDGSVDFGRKWDPYKQGFGNVATNTDGKNYCGLPGEYWLGNDKISQLTRMGPTELLIEMEDWKGDKVKAHYGGFTVQNEANKYQISVNKYRGTAGNALMDGASQLMGENRTMTIHNGMFFSTYDRDNDGWLTSDPRKQCSKEDGGGWWYNRCHAANPNGRYYWGGQYTWDMAKHGTDDGVVWMNWKGSWYSMRKMSMKIRPFFPQQ
chain 3: YVATRDNCCILDERFGSYCPTTCGIADFLSTYQTKVDKDLQSLEDILHQVENKTSEVKQLIKAIQLTYNPDESSKPNMIDAATLKSRKMLEEIMKYEASILTHDSSIRYLQEIYNSNNQKIVNLKEKVAQLEAQCQEPCKDTVQIHDITGKDCQDIANKGAKQSGLYFIKPLKANQQFLVYCEIDGSGNGWTVFQKRLDGSVDFKKNWIQYKEGFGHLSPTGTTEFWLGNEKIHLISTQSAIPYALRVELEDWNGRTSTADYAMFKVGPEADKYRLTYAYFAGGDAGDAFDGFDFGDDPSDKFFTSHNGMQFSTWDNDNDKFEGNCAEQDGSGWWMNKCHAGHLNGVYYQGGTYSKASTPNGYDNGIIWATWKTRWYSMKKTTMKIIPFNRLTIGEGQQHHLGGAKQAGDV
notes: also called biotinylated fibrinogen; unmodified fibrinogen
Consider B2, for which the results for the IC50 in assay [2] and in assay [3] were 43 nM and 15 nM, respectively.

These data come from patent publication US20020150536A1 (published 2002).
